Measured values as given in patent US20250213713A1, “Antibody-Drug Conjugates Targeting uPARAP Comprising Exatecan Derivatives” (ADCENDO APS, priority 2022, published 2025).

T1: soluble full-length uPARAP (UniProt Q9UBG0 31-1414, limits assumed)
T1 construct: also called CD280
T1 sequence (looked up): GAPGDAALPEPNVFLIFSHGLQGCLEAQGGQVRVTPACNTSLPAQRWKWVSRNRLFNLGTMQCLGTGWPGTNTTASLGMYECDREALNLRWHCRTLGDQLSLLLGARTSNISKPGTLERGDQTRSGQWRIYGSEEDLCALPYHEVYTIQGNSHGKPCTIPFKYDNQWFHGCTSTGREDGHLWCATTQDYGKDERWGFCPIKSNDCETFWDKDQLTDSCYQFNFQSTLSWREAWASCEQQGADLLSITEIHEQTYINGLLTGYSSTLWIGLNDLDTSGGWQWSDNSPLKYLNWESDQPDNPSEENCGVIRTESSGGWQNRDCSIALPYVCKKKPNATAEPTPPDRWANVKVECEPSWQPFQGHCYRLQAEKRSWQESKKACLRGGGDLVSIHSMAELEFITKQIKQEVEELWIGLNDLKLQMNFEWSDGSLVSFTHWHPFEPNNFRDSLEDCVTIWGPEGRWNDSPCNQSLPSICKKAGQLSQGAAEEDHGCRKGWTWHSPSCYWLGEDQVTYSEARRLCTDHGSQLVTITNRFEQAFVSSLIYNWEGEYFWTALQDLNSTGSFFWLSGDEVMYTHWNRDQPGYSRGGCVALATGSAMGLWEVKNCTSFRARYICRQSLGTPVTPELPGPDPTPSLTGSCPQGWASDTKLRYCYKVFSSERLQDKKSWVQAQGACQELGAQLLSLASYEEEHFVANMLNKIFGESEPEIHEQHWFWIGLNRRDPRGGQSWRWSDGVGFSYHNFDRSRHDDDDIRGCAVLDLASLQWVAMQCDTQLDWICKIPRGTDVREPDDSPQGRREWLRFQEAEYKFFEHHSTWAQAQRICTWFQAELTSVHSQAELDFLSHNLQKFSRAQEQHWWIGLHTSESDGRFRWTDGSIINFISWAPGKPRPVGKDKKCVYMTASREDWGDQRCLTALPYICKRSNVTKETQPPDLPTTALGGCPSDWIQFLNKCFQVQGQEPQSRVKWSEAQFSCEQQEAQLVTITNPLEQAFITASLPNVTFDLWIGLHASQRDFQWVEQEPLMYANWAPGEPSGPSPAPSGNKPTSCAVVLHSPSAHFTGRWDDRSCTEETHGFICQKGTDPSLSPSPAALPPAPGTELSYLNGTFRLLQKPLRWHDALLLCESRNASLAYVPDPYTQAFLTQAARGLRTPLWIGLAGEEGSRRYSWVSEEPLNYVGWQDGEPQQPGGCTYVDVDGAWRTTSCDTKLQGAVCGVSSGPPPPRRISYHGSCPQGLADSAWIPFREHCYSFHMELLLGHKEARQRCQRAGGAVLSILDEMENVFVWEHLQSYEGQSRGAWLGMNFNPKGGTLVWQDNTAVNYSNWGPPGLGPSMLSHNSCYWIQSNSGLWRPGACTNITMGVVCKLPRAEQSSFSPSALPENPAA


Assays:
[1] = tested on: JIMT-1 cells; assay: Inhibition of in vitro proliferation of tumor cells (CTG), JIMT-1; format: cell-based; conditions: read-out: JIMT-1 IC50; Table 8, 6 days of culture
Method: (§1) To test the inhibitory activity of the pharmaceutical compounds on the in vitro proliferation of NCI-N87, JIMT-1 and MBA-MB-231 tumor cells. The cells were treated with the compounds at different concentrations in vitro, and after 6 days of culture, the proliferation of cells was detected using the CTG (CellTiter-Glo® Luminescent Cell Viability Assay, Promega, Cat. No. G7558) reagent, and the in vitro activity of the compounds was evaluated according to the IC50 value. […]
(§2) There were 8 concentrations in total for the small molecule compounds: 300 nM, 100 nM, 30 nM, 10 nM, 3 nM, 1 nM, 0.3 nM, and 0.1 nM. • 5. Sample adding: the prepared samples to be detected at different concentrations were added to the culture plate, and two duplicate wells were set for each sample. […] Plate reading: the 96-well cell culture plate was taken out, placed in a microplate reader, and measured for the chemiluminescence using the microplate reader.
as §1, with “with” for “with the”, “using” for “using the”, “reagents,” for “reagent,”, “value. • 1.” for “value.”

[2] = tested on: NCI-N87 cells; assay: Inhibition of in vitro proliferation of tumor cells (CTG), NCI-N87; format: cell-based; conditions: read-out: NCI-N87 IC50; Table 8, 6 days of culture
Method: as §1, §2
as §1, with “with” for “with the”, “using” for “using the”, “reagents,” for “reagent,”, “value. • 1.” for “value.”

[3] = target: T1, soluble full-length uPARAP; assay: SPR (Biacore 2000), antibody captured on anti-human Fc CM5 chip, soluble full-length uPARAP as analyte, 25 C, Langmuir 1:1 global fit
Method: (§3) SPR analyses were performed for determination of the affinity of the obtained antibodies towards uPARAP. These analyses were performed using a Biacore 2000 instrument (Biaffin GmbH, Kassel, Germany) using a CM5 sensor chip with an anti-human Fc capture surface for antibody binding. The analysis temperature was set at 25° C. Binding of antibody onto this surface was followed by passing soluble full-length uPARAP over the chip, and the resulting association and dissociation rates were derived from the resulting binding curves. For kinetic interaction analyses, a flowrate of 30 μL/min was used and the analysis buffer consisted of 10 mM HEPES pH 7.4, 150 mM NaCl, 3 mM EDTA, 0.05% Tween 20.
(§4) LC4HC3 and LC0HC0 were analyzed by SPR as described in Materials and Methods above. In particular, the binding kinetics of LC4HC3 were compared with those of LC0HC0 (Table 5).

[4] = target: T1, soluble full-length uPARAP; assay: SPR (Biacore 2000), ratio of KD values against LC0HC0
Method: as §3, §4

Molecule | IC50 [1] | IC50 [2] | Kd [3] | koff [3] | kon [3] | fold higher ligand affinity than LC0HC0 [4]
CC[C@@]1(O)C(=O)OCc2c1cc1n(c2=O)Cc2c-1nc1cc(F)c(C)c3c1c2[C@@H](NC(=O)CCS)CC3 [P-III-2] | 108 nM | 108 nM |  |  |  | 
CC[C@@]1(O)C(=O)OCc2c1cc1n(c2=O)Cc2c-1nc1cc(F)c(C)c3c1c2[C@@H](NC(=O)CC(C)(C)O)CC3 [P-III-21] | 2.87 nM | 4.75 nM |  |  |  | 
980.2 LC0HC0 (chimeric antibody: variable domains of murine 9b7 fused to human IgG1 kappa constant regions) (antibody, V domains shown, Complete IgG1 kappa, expressed in CHO cells; captured by anti-human Fc in the SPR assay; also called parental antibody) VH: QVHLVQSGPELKKPGETVKISCKASGYIFIDYGMHWVKQAPGKGLKWMGSINTKSGVSTYAAEFKGRFAFSLETSASTAYLQINNLKNEDTATYFCARPPYYSQYGSYWGQGTLVTVSA VL: DIVMTQSQKFMSTSVGDRVSVTCKASQNVDTYVVWYQQKPGQSPKPLIYSASSRFSGVPDRFTGTGSGTDFTLTINNVQSEDLAEYFCQQYHNSPLTFGGGTKLEIKR |  |  | 0.86 nM | 5.33e-05 s⁻¹ | 62300 M⁻¹ s⁻¹ | 
980.2 LC4HC3 (humanized 9b7 antibody) (antibody, human IgG1, kappa, V domains shown, Complete IgG1 kappa, expressed in CHO cells; captured by anti-human Fc in the SPR assay) VH: QVQLVQSGAEVKKPGASVKVSCKASGYIFIDYGMHWVRQAPGQRLEWMGSINTKSGVSTYAAEFKGRVTIYSDTSASTAYMELSSLRSEDTAVYFCARPPYYSQYGSYWGQGTLVTVSS VL: EIVMTQSPDSLAVSLGERATINCKASQNVDTYVVWYQQKPGQPPQPLIYSASSRFSGVPDRFSGSGSGTDFTLTISSLQAEDVAIYYCQQYHNSPLTFGGGTKVEIKR |  |  | 0.5 nM | 4.04e-05 s⁻¹ | 81300 M⁻¹ s⁻¹ | ~1.7 fold
